Data from patent US7803750.

Target: tyrosinase protein of murine B16 melanoma tumors and melan-A murine melanocytes (murine) (UniProt P11344)
Test: cell-based or functional assay

UniProt P11344, sequence (P11344 19-533 limits assumed): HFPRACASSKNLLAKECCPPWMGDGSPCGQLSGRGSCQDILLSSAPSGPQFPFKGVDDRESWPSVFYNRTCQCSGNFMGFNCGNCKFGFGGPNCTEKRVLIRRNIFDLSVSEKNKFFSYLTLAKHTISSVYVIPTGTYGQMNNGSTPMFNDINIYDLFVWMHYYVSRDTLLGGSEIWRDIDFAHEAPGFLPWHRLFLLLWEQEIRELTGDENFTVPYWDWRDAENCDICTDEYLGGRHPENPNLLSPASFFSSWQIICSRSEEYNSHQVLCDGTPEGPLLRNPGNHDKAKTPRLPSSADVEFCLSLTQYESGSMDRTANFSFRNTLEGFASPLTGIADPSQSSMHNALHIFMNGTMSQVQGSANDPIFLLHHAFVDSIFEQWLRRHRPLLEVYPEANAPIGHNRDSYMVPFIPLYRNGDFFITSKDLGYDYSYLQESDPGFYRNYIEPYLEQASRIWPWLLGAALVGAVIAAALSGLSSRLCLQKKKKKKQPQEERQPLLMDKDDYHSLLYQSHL

- decrease in color development with L-DOPA (tyrosinase activity in frozen sections of B16-V tumors): 25 to 50%
Substance: epitope-tagged recombinant human (rh) ZAG (zinc alpha-2-glycoprotein) with myc and 6-His 3' epitope tags (from UniProt P25311 21-298)
